Literature values in article PMC9713128.

Target: HBcAg (Hepatitis B virus) (UniProt P03149)
Assay: solution binding assay

UniProt P03149, sequence (P03149 whole entry): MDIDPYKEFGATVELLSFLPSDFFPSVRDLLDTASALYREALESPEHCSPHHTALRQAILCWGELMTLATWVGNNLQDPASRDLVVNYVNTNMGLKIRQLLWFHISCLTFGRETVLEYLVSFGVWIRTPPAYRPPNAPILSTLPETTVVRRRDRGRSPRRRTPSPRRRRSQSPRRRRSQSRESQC

Substance	Kd [nM]
cyclic peptide C-WPFWGPW-C	< 25
cyclic peptide C-WSFFSNI-C	< 25
